Experiments:
myostatin [1] = molecular target: T1, myostatin (UniProt O14793 267-375); assay: Biacore SPR (Table 3)
T1 sequence (looked up): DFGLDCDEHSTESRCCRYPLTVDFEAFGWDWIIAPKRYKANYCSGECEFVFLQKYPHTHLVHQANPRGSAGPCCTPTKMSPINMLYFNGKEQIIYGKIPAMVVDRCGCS
Source text: (§1) Specifically, commercially available follistatins (FS315, manufactured by R&D Systems and follistatin-Fc human chimera FS315-hFc, manufactured by Sino Biological), and FS315-GAG3-mFc fusion proteins were used to assess binding affinity and kinetics to activin, myostatin, and BMPs using Biacore assays. Briefly, FS315 was immobilized onto a CM5 chip, and follistatin-Fc fusion proteins were captured using human or mouse antibody capture kits (GE Healthcare). Post amine-coupling, a concentration series of activin, myostatin, or BMPs (e.g., BMP-2, -4, -6, -7, -9, -10, and GDF-1) was added as soluble analyte at 25° C. sActRTIB-hFc was used as a control. Binding affinities (Kd) and kinetics were determined using standard methods.

myostatin [2] = molecular target: T1, myostatin; assay: cell-based or functional assay
activin [3] = molecular target: T2, activin (UniProt P08476 311-426); assay: cell-based or functional assay
T2 sequence (looked up): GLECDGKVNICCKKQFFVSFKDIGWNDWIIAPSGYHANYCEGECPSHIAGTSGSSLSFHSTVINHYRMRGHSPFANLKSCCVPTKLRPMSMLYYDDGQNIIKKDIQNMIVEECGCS

myostatin [4] = molecular target: T1, myostatin; assay: cell-based or functional assay; remark: listed apart in the source
BMP-9 = molecular target: T3, BMP-9 (UniProt Q9UK05 320-429); assay: Biacore SPR, 25 C; Fc fusion captured with antibody capture kit, ligand as soluble analyte
T3 sequence (looked up): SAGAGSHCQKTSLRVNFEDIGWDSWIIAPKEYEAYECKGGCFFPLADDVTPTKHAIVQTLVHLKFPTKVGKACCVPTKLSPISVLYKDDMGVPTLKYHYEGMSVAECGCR
Source text: as §1

BMP-10 = molecular target: T4, BMP-10 (UniProt O95393 317-424); assay: as above
T4 sequence (looked up): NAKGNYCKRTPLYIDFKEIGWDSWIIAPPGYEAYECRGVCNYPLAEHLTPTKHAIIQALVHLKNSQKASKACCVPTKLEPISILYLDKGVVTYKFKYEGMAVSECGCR
Source text: as §1

BMP-2 = BMP-2 (UniProt P12643 283-396); assay: as above
Source text: as §1

GDF-11 = molecular target: T5, GDF-11 (UniProt O95390 299-407); assay: Biacore SPR, 25 C; Fc fusion captured with mouse antibody capture kit, ligand as soluble analyte
T5 sequence (looked up): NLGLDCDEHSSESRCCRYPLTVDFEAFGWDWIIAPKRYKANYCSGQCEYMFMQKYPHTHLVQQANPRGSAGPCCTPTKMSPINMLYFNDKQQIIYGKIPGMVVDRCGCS
Source text: as §1

myostatin [5] = molecular target: T1, myostatin; assay: as above
Source text: as §1

activin [6] = molecular target: T2, activin; assay: as above
Source text: as §1

BMP-4 = molecular target: T6, BMP-4 (UniProt P12644 293-408); assay: as above
T6 sequence (looked up): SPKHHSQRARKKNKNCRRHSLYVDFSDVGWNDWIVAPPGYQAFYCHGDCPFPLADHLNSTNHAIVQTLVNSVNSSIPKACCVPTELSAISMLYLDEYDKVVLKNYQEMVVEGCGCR
Source text: as §1

Sequence of BMP-2 (P12643 283-396 limits assumed): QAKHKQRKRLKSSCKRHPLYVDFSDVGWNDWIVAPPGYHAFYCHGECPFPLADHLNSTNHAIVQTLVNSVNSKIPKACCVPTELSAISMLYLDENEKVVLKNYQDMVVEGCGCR

fold increase of binding affinity against follistatin (FS315) (myostatin [1]): ≥ 10 fold
IC50, CAGA-luciferase reporter assay for Smad2/3 signaling (1.2 nM myostatin) (myostatin [2]): 460 pM
IC50, CAGA-luciferase reporter assay for Smad2/3 signaling (1.2 nM activin) (activin [3]): 360 pM
IC50 (read off the curve); CAGA-luciferase reporter in HEK293 cells, myostatin (1.2 nM)-induced Smad2/3 signalling (myostatin [4]): ~300 pM
binding result (BMP-9): no binding
binding result (BMP-10): no binding
binding result (BMP-2): no binding
Kd (GDF-11): 0.018 pM
Kd (myostatin [5]): 0.073 pM
Kd (activin [6]): 0.038 pM
Kd (BMP-4): 81000 pM
B1: FS315-GAG3-mFc (Fc fusion)
chain: GNCWLRQAKNGRCQVLYKTELSKEECCSTGRLSTSWTEEDVNDNTLFKWMIFNGGAPNCIPCKETCENVDCGPGKKCRMNKKNKPRCVCAPDCSNITWKGPVCGLDGKTYRNECALLKARCKEQPELEVQYQGRCKKTCRDVFCPGSSTCVVDQTNNAYCVTCNRICPEPASSEQYLCGNDGVTYSSACHLRKATCLLGRSIGLAYEGKCIKAKSCEDIQCTGGKKCLWDFKVGRGRCSLCDELCPDSKSDEPVCASDNATYASECAMKEAACSSGVLLEVKHSGSCNSISEDTEEEEEDEDQDYSFPISSILEWGAPGGGGGAAAAAGGGGGGAPGGGGGAAAAAGGGGGGAPGGGGGAAAAAGGGGGGAPGCKPCICTVPEVSSVFIFPPKPKDVLTITLTPKVTCVVVDISKDDPEVQFSWFVDDVEVHTAQTQPREEQFNSTFRSVSELPIMHQDWLNGKEFKCRVNSAAFPAPIEKTISKTKGRPKAPQVYTIPPPKEQMAKDKVSLTCMITDFFPEDITVEWQWNGQPAENYKNTQPIMDTDGSYFVYSKLNVQKSNWEAGNTFTCSVLHEGLHNHHTEKSLSHSPGK
notes: also called FS315-mFc; FS315-Fc

Reference: US20180305421A1 (SHIRE HUMAN GENETIC THERAPIES, published 2018)
